± gives the standard deviation of the averaged measurements.
Test: total protein half-life in vivo (active degradation + dilution); higher = more stable protein
[1] = E. coli NCM3722 delta-clpP delta-lon delta-hslV, growth: N-lim chemostat, doubling time 6 h
[2] = E. coli NCM3722 delta-clpP, growth: N-lim chemostat, doubling time 6 h
[3] = E. coli NCM3722 delta-hslV, growth: N-lim chemostat, doubling time 6 h
[4] = E. coli NCM3722 delta-lon, growth: N-lim chemostat, doubling time 6 h
[5] = E. coli NCM3722 delta-smpB, growth: N-lim chemostat, doubling time 6 h
[6] = wild type E. coli NCM3722, growth: C-lim chemostat, doubling time 3 h
[7] = wild type E. coli NCM3722, growth: C-lim chemostat, doubling time 6 h
[8] = wild type E. coli NCM3722, growth: C-lim chemostat, doubling time 12 h
[9] = wild type E. coli NCM3722, growth: N-lim chemostat, doubling time 6 h
[10] = wild type E. coli NCM3722, growth: N-lim chemostat, doubling time 12 h
[11] = wild type E. coli NCM3722, growth: P-lim chemostat, doubling time 6 h
[12] = wild type E. coli NCM3722, growth: P-lim chemostat, doubling time 12 h

Sequence	total protein half-life in vivo [1] [h]	total protein half-life in vivo [2] [h]	total protein half-life in vivo [3] [h]	total protein half-life in vivo [4] [h]	total protein half-life in vivo [5] [h]	total protein half-life in vivo [6] [h]	total protein half-life in vivo [7] [h]	total protein half-life in vivo [8] [h]	total protein half-life in vivo [9] [h]	total protein half-life in vivo [10] [h]	total protein half-life in vivo [11] [h]	total protein half-life in vivo [12] [h]
MKSATSAQRPYQEVGAMIRDLIIKTPYNPGERLPPEREIAEMLDVTRTVVREALIMLEIKGLVEVRRGAGIYVLDNSGSQNTDSPDANVCNDAGPFELLQARQLLESNIAEFAALQATREDIVKMRQALQLEERELASSAPGSSESGDMQFHLAIAEATHNSMLVELFRQSWQWRENNPMWIQLHSHLDDSLYRKEWLGDHKQILAALIKKDARAAKLAMWQHLENVKQRLLEFSNVDDIYFDGYLFDSWPLDKVDA	4.94 ± 0.91	4.94 ± 0.29	2.75 ± 0.15	3.04 ± 0.38	2.82 ± 0.23	2.21 ± 0.16	3.86 ± 0.058	5.88 ± 0.11	2.83	3.494 ± 0.022	3.22 ± 0.098	5.72 ± 0.14
MKSEVLSVKEKIGYGMGDAASHIIFDNVMLYMMFFYTDIFGIPAGFVGTMFLVARALDAISDPCMGLLADRTRSRWGKFRPWVLFGALPFGIVCVLAYSTPDLSMNGKMIYAAITYTLLTLLYTVVNIPYCALGGVITNDPTQRISLQSWRFVLATAGGMLSTVLMMPLVNLIGGDNKPLGFQGGIAVLSVVAFMMLAFCFFTTKERVEAPPTTTSMREDLRDIWQNDQWRIVGLLTIFNILAVCVRGGAMMYYVTWILGTPEVFVAFLTTYCVGNLIGSALAKPLTDWKCKVTIFWWTNALLAVISLAMFFVPMQASITMFVFIFVIGVLHQLVTPIQWVMMSDTVDYGEWCNGKRLTGISFAGTLFVLKLGLAFGGALIGWMLAYGGYDAAEKAQNSATISIIIALFTIVPAICYLLSAIIAKRYYSLTTHNLKTVMEQLAQGKRRCQQQFTSQEVQN	3.79 ± 0.88	2.71 ± 0.12	2.34 ± 0.037	2.68	–	2.83 ± 0.12	4.26 ± 0.11	8.19 ± 1.7	2.823 ± 0.011	4.72	5.34 ± 0.062	9.79 ± 1.1
MKSGRFIGVMSGTSLDGVDVVLATIDEHRVAQLASLSWPIPVSLKQAVLDICQGQQLTLSQFGQLDTQLGQLFADAVNALLKEQNLQARDIVAIGCHGQTVWHEPTGVAPHTLQIGDNNQIVARTGITVVGDFRRRDIALGGQGAPLVPAFHHALLAHPTERRMVLNIGGIANLSLLIPGQPVGGYDTGPGNMLMDAWIWRQAGKPYDKDAEWARAGKVILPLLQNMLSDPYFSQPAPKSTGREYFNYGWLERHLRHFPGVDPRDVQATLAELTAVTISEQVLLSGGCERLMVCGGGSRNPLLMARLAALLPGTEVTTTDAVGISGDDMEALAFAWLAWRTLAGLPGNLPSVTGASQETVLGAIFPANP	4.58 ± 0.37	4.32 ± 0.2	3.98 ± 0.065	5.78 ± 1.9	3.88 ± 0.11	3.34 ± 0.54	5.7 ± 0.078	9.74 ± 0.51	4.03 ± 0.26	7.18 ± 0.17	5.87 ± 0.47	12.9 ± 0.95
MKSILIEKPNQLAIVEREIPTPSAGEVRVKVKLAGICGSDSHIYRGHNPFAKYPRVIGHEFFGVIDAVGEGVESARVGERVAVDPVVSCGHCYPCSIGKPNVCTTLAVLGVHADGGFSEYAVVPAKNAWKIPEAVADQYAVMIEPFTIAANVTGHGQPTENDTVLVYGAGPIGLTIVQVLKGVYNVKNVIVADRIDERLEKAKESGADWAINNSQTPLGEIFTEKGIKPTLIIDAACHPSILKEAVTLASPAARIVLMGFSSEPSEVIQQGITGKELSIFSSRLNANKFPIVIDWLSKGLIKPEKLITHTFDFQHVADAISLFEQDQKHCCKVLLTFSE	3.84 ± 0.53	–	–	–	2.11	2.26 ± 0.28	3.455 ± 0.03	8.98 ± 3.8	2.37	–	4.75	7.18
MKSKDTLKWFPAQLPEVRIILGDAVVEVAKQGRPINTRTLLDYIEGNIKKTSWLDNKELLQTAISVLKDNQNLNGKM	–	–	–	–	2.39	–	–	4.92	–	–	–	–
MKSKVLALLIPALLAAGAAHAAEVYNKDGNKLDLYGKVDGLHYFSDNSAKDGDQSYARLGFKGETQINDQLTGYGQWEYNIQANNTESSKNQSWTRLAFAGLKFADYGSFDYGRNYGVMYDIEGWTDMLPEFGGDSYTNADNFMTGRANGVATYRNTDFFGLVNGLNFAVQYQGNNEGASNGQEGTNNGRDVRHENGDGWGLSTTYDLGMGFSAGAAYTSSDRTNDQVNHTAAGGDKADAWTAGLKYDANNIYLATMYSETRNMTPFGDSDYAVANKTQNFEVTAQYQFDFGLRPAVSFLMSKGRDLHAAGGADNPAGVDDKDLVKYADIGATYYFNKNMSTYVDYKINLLDEDDSFYAANGISTDDIVALGLVYQF	–	–	–	–	–	3.6	6.9	11.9	–	–	–	–
MKSLFKVTLLATTMAVALHAPITFAAEAAKPATAADSKAAFKNDDQKSAYALGASLGRYMENSLKEQEKLGIKLDKDQLIAGVQDAFADKSKLSDQEIEQTLQAFEARVKSSAQAKMEKDAADNEAKGKEYREKFAKEKGVKTSSTGLVYQVVEAGKGEAPKDSDTVVVNYKGTLIDGKEFDNSYTRGEPLSFRLDGVIPGWTEGLKNIKKGGKIKLVIPPELAYGKAGVPGIPPNSTLVFDVELLDVKPAPKADAKPEADAKAADSAKK	6.63 ± 0.44	6.6 ± 0.35	6.58 ± 0.14	6.56 ± 0.067	5.9 ± 0.28	3.15 ± 0.053	6.68 ± 0.15	11.5 ± 0.64	5.86 ± 0.3	14 ± 2.2	6.04 ± 0.87	14.8 ± 1.6
MKSLRLMLCAMPLMLTGCSTMSSVNWSAANPWNWFGSSTKVSEQGVGELTASTPLQEQAIADALDGDYRLRSGMKTANGNVVRFFEVMKGDNVAMVINGDQGTISRIDVLDSDIPADTGVKIGTPFSDLYSKAFGNCQKADGDDNRAVECKAEGSQHISYQFSGEWRGPEGLMPSDDTLKNWKVSKIIWRR	5.96 ± 0.15	6.484 ± 0.023	7.579 ± 0.065	–	6.4 ± 0.55	3.24 ± 0.74	6.151 ± 0.0073	14.8 ± 0.17	6.63 ± 0.47	–	6.68 ± 0.71	–
MKSNRQARHILGLDHKISNQRKIVTEGDKSSVVNNPTGRKRPAEK	1.25 ± 0.066	0.873	1.04 ± 0.075	1.37 ± 0.39	0.657	1.64 ± 0.16	1.85	1.81 ± 0.55	1.08	1.74 ± 0.51	0.899 ± 0.2	1.34 ± 0.98
MKSPAPSRPQKMALIPACIFLCFAALSVQAEETPVTPQPPDILLGPLFNDVQNAKLFPDQKTFADAVPNSDPLMILADYRMQQNQSGFDLRHFVNVNFTLPKEGEKYVPPEGQSLREHIDGLWPVLTRSTENTEKWDSLLPLPEPYVVPGGRFREVYYWDSYFTMLGLAESGHWDKVADMVANFAHEIDTYGHIPNGNRSYYLSRSQPPFFALMVELLAQHEGDAALKQYLPQMQKEYAYWMDGVENLQAGQQEKRVVKLQDGTLLNRYWDDRDTPRPESWVEDIATAKSNPNRPATEIYRDLRSAAASGWDFSSRWMDNPQQLNTLRTTSIVPVDLNSLMFKMEKILARASKAAGDNAMANQYETLANARQKGIEKYLWNDQQGWYADYDLKSHKVRNQLTAAALFPLYVNAAAKDRANKMATATKTHLLQPGGLNTTSVKSGQQWDAPNGWAPLQWVATEGLQNYGQKEVAMDISWHFLTNVQHTYDREKKLVEKYDVSTTGTGGGGGEYPLQDGFGWTNGVTLKMLDLICPKEQPCDNVPATRPTVKSATTQPSTKEAQPTP	6.13 ± 0.28	–	7.29 ± 0.5	6.16 ± 0.95	5.94 ± 0.87	3.51 ± 0.67	6.59 ± 0.25	11.2 ± 0.94	6.28 ± 0.098	14.4 ± 0.85	–	14.4 ± 1.6
MKSTSDLFNEIIPLGRLIHMVNQKKDRLLNEYLSPLDITAAQFKVLCSIRCAACITPVELKKVLSVDLGALTRMLDRLVCKGWVERLPNPNDKRGVLVKLTTGGAAICEQCHQLVGQDLHQELTKNLTADEVATLEYLLKKVLP	4.66 ± 0.39	6.71	> 8	–	4.66 ± 0.12	–	5.68 ± 0.62	11.7 ± 2.1	4.4 ± 0.066	7.75 ± 0.37	3.68	10.8
MKSVFTISASLAISLMLCCTAQANDHKLLGAIAMPRNETNDLALKLPVCRIVKRIQLSADHGDLQLSGASVYFKAARSASQSLNIPSEIKEGQTTDWININSDNDNKRCVSKITFSGHTVNSSDMATLKIIGDD	–	3.9	–	–	5.9	–	4.34	–	–	13	–	8.91
MKTDTPSLETPQAARLRRRQLIRQLLERDKTPLAILFMAAVVGTLVGLAAVAFDKGVAWLQNQRMGALVHTADNYPLLLTVAFLCSAVLAMFGYFLVRKYAPEAGGSGIPEIEGALEDQRPVRWWRVLPVKFFGGLGTLGGGMVLGREGPTVQIGGNIGRMVLDIFRLKGDEARHTLLATGAAAGLAAAFNAPLAGILFIIEEMRPQFRYTLISIKAVFIGVIMSTIMYRIFNHEVALIDVGKLSDAPLNTLWLYLILGIIFGIFGPIFNKWVLGMQDLLHRVHGGNITKWVLMGGAIGGLCGLLGFVAPATSGGGFNLIPIATAGNFSMGMLVFIFVARVITTLLCFSSGAPGGIFAPMLALGTVLGTAFGMVAVELFPQYHLEAGTFAIAGMGALLAASIRAPLTGIILVLEMTDNYQLILPMIITGLGATLLAQFTGGKPLYSAILARTLAKQEAEQLARSKAASASENT	6.2 ± 0.78	6.38	6.54 ± 0.83	6.03	5.82 ± 0.66	–	5.8 ± 0.28	13.2 ± 3.7	6.08 ± 0.083	11.3	6.1 ± 0.11	11.3 ± 0.43
